The target of this assay is BK α W176C (S2–S3 loop) in the pWTb background (mouse). The assay is described as follows: cross-linking.

“BK β1 subunit G12C (TM1 flank) in the pWT β1 background (from UniProt Q16558-1 1-191) (natural protein)” yielded an extent of cross-linking of 80%.

The values above are taken from article PMC4338161.
